Laboratory results: patent CN117192118A (DRAGONBOAT BIOPHARMACEUTICAL SHANGHAI CO LTD, dated 2023)

Tests used:
[1] = biological target: T1, 人CLDN18.2 (human, UniProt P56856-2 1-261, limits assumed); experiment: BLI
T1 construct: The construct and its source are not described; P56856 is the CLDN18 entry; CLDN18.2 is its isoform 2 (A2)
T1 sequence (looked up): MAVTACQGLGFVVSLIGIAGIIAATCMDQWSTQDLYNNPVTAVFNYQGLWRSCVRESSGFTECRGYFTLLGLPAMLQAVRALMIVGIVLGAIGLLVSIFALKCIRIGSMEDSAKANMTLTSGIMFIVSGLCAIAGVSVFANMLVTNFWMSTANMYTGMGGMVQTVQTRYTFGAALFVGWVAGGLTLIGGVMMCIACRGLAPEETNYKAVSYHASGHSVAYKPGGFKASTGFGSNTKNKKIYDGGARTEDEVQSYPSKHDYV

[2] = biological target: T2, 人CD47 (human, UniProt Q08722 19-139, limits assumed); experiment: BLI
T2 construct: The construct is not described
T2 sequence (Q08722 19-139 limits assumed): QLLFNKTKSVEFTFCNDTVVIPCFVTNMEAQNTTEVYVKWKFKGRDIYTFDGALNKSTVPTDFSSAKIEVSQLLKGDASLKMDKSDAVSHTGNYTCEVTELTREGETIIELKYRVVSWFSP

[3] = biological target: T1, 人CLDN18.2; experiment: ELISA
[4] = biological target: T2, 人CD47; experiment: ELISA
[5] = biological target: T2, 人CD47; experiment: ELISA competition, blocking of CD47 binding to SIRPα

Kd [1]: 1.87 nM | Kd [2]: 21.8 nM | EC50 [3]: 0.121 µg/mL | EC50 [4]: 0.0462 µg/mL | IC50 [5]: 2.2 µg/mL
B1: 抗CD47-CLDN18.2双特异性抗体双抗A (bispecific antibody, human IgG1, kappa)
heavy: not shown
light: DIQMTQSPSSLSASVGDRVTITCRASQDISNHLNWYQQKPGKAPKLLIYYTSRIHSGVPSSFRGSGSGTDYTLTISSLQPEDIATYFCQQGYTLPFTFGSGTKLEIKRTVAAPSVFIFPPSDEQLKSGTASVVCLLNNFYPREAKVQWKVDNALQSGNSQESVTEQDSKDSTYSLSSTLTLSKADYEKHKVYACEVTHQGLSSPVTKSFNRGEC
notes: The short chain is the A7H3L3 kappa light chain; Expressed in CHO-K1; also called 本发明抗体
